The text below walks through data of publication PMC7946963, “Phosphorylation regulates the binding of autophagy receptors to FIP200 Claw domain for selective autophagy initiation” (Nature Communications, 2021).

To fix the notation:
B4: nano-FIP200(1450–1594) (domain or fragment, human, UniProt Q8TDY2 1450-1594, looked up)
chain: HMLSEEKQRIMLLERTLQLKEEENKRLNQRLMSQSMSSVSSRHSEKIAIRDFQVGDLVLIILDERHDNYVLFTVSPTLYFLHSESLPALDLKPGEGASGASRRPWVLGKVMEKEYCQAKKAQNRFKVPLGTKFYRVKAVSWNKKV
notes: FIP200 (RB1CC1), human, residues 1450-1594; the construct of the analytical gel filtration with Optineurin fragments; also called FIP200 Claw domain; source: E. coli BL21 (DE3), purified (Ni-NTA, size-exclusion chromatography)
B6: FIP200 Claw domain (residues 1490–1594) (domain or fragment, human, UniProt Q8TDY2 1490-1594, looked up)
chain: SRHSEKIAIRDFQVGDLVLIILDERHDNYVLFTVSPTLYFLHSESLPALDLKPGEGASGASRRPWVLGKVMEKEYCQAKKAQNRFKVPLGTKFYRVKAVSWNKKV
notes: 15N-labelled in the NMR titrations; also called RB1CC1; source: E. coli BL21 (DE3), purified (Ni-NTA, size-exclusion chromatography); not shown: Trx (inferred from the cleaved 3C protease site), N-terminal, cleaved; His6, N-terminal, cleaved

The target in data set [1] is B6. In words: AUC; sedimentation velocity, 142,250 x g, 20 °C; FIP200(1490–1594) alone, CCPG1 FIR2 S104E alone, and FIP200(1490–1594) mixed with excess CCPG1 FIR2 S104E. As to conditions: both partners purified.
The target in data set [2] is T1, GABARAP (UniProt O95166 1-117).
T1 construct: GABARAP, one of the six mammalian ATG8 family proteins; construct not described; also called ATG8 family protein; mammalian ATG8 orthologue; source: bacteria (15N-labelled form grown in M9 minimal medium); construct not described
In words: fluorescence polarisation; FITC-labeled peptide (~0.25 μM) titrated with increasing amounts of protein; 20 mM Tris pH 7.9, 100 mM NaCl, 1 mM DTT, 25 °C; one-site binding model. The conditions noted are these: both partners purified. (In general: In fluorescence polarisation assays a small probe gives low polarisation when free and higher when bound to something large.)

Data set [3] concerns the target B6. The data set is described as above. The conditions noted are these: both partners purified.
In data set [4] the target is T2, p-Optineurin(33–209), Optineurin(33–209) phosphorylated by TBK1 (human, UniProt Q96CV9 33-209, phosphoserine at 177 (the major site phosphorylated by TBK1, by mass spectrometry)).
T2 construct: S177 is called the major site; other phosphorylated sites are not excluded; source: E. coli BL21 (DE3), purified; phosphorylated in vitro by purified Trx-TBK1(1–674) from Sf9 cells
In words: SEC; analytical gel filtration of purified proteins and their mixtures; Superose 200 increase 10/300 GL; 20 mM Tris-HCl pH 7.9, 100 mM NaCl, 1 mM DTT. As to conditions: both partners purified. (Size exclusion chromatography separates by hydrodynamic size, large species first.)

Data set [5] concerns the molecule itself. In words: AUC; sedimentation velocity, 142,250 x g, 20 °C; FIP200(1490–1594) alone, CCPG1 FIR2 S104E alone, and FIP200(1490–1594) mixed with excess CCPG1 FIR2 S104E.
Data set [6] addresses B4. In words: SEC; analytical gel filtration of purified proteins and their mixtures; Superose 200 increase 10/300 GL; 20 mM Tris-HCl pH 7.9, 100 mM NaCl, 1 mM DTT. The conditions noted are these: both partners purified.

Square brackets hold non-standard residues; d marks the D form. Ends that are not written are not given here. * marks the point of attachment. FITC = O=C1OC2(c3ccc(O)cc3Oc3cc(O)ccc32)c2ccc(NC(=S)*)cc21; pS = N[C@@H](COP(=O)(O)O)C(=O)O

A word on the stoichiometry N: it is a count of units in the complex or per binding partner. By Kd is commonly meant a measure of binding affinity in units of concentration. Higher therefore signals lower affinity.

T1 sequence (O95166 whole entry): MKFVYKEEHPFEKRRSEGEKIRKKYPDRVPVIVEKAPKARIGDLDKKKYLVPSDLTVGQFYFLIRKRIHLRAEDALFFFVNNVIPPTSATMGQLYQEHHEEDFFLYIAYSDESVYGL
T2 sequence (Q96CV9 33-209): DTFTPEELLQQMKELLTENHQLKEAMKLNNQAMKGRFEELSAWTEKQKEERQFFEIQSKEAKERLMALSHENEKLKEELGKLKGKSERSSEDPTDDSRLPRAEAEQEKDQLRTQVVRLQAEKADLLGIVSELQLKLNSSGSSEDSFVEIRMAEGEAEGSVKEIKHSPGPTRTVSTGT

B1: CCPG1 FIR2 S104E (phosphomimetic mutant, residues 99–113) (domain or fragment, human, UniProt Q9ULG6 99-113, looked up)
chain: TASDDEDIVTLEPPK
notes: CCPG1, human, FIR2, residues 99-113; also called phosphomimetic S104E mutant of CCPG1 FIR2; source: E. coli BL21 (DE3), purified (Ni-NTA, size-exclusion chromatography)
In the case of B1, in data set [1], the “stoichiometry N” value was 1 CCPG1 FIR2 S104E per FIP200 chain (2:2).

B2: CCPG1 FIR2 synthetic peptide (residues 99–113) (peptide)
peptide: TASDDSDIVTLEPPK
modifications: also: FITC on N-terminus in fluorescence polarisation assay only
notes: The results speak of a 13-residue peptide; also called un-phosphorylated CCPG1 FIR2; wild-type CCPG1 FIR2; source: synthetic peptide, bought: ChinaPeptides (>98% pure)
Take B2: the equilibrium dissociation constant (Kd) in data set [2] is roughly 27 µM. Further, the binding result in data set [3] is “binds”.

B3: S177-phosphorylated Optineurin LIR synthetic peptide (p-Optineurin LIR) (peptide)
peptide: SSED[pS]FVEIRMAE
modifications: also: N-terminal FITC in fluorescence polarisation assay only
notes: source: synthetic peptide, bought: ChinaPeptides (>98% pure)
On to B3, for which the equilibrium dissociation constant (Kd) in data set [3] was roughly 12 µM.

Turning to B4, the binding result in data set [4] is given as “binds”.

B5: Optineurin LIR synthetic peptide (un-phosphorylated) (peptide)
peptide: {FITC}-SSEDSFVEIRMAE
notes: Optineurin, human, LIR region; also called un-phosphorylated Optineurin LIR peptide; source: synthetic peptide, bought: ChinaPeptides (>98% pure)
Take B5: the Kd in data set [3] is roughly 307 µM.

In the case of B6, the “stoichiometry N” value in data set [5] amounted to 2.

B7: Optineurin(169–185) S177E (phosphomimetic mutant) (domain or fragment, human, UniProt Q96CV9 169-185, looked up)
chain: NSSGSSEDEFVEIRMAE
notes: also called S177E mutant of Optineurin LIR; source: E. coli BL21 (DE3), purified (Ni-NTA, size-exclusion chromatography)
On to B7, for which the binding result in data set [6] was “binds”.

B8: Optineurin(169–185) S177E/F178W (domain or fragment, human, UniProt Q96CV9 169-185, looked up)
chain: NSSGSSEDEWVEIRMAE
notes: also called F178 of the S177E mutant of Optineurin LIR replaced by Trp; source: E. coli BL21 (DE3), purified (Ni-NTA, size-exclusion chromatography)
For the molecule B8, the binding result in data set [6] was “binds”.

B9: Optineurin(169–185) S177E/F178Y (domain or fragment, human, UniProt Q96CV9 169-185, looked up)
chain: NSSGSSEDEYVEIRMAE
notes: also called F178 of the S177E mutant of Optineurin LIR replaced by Tyr; source: E. coli BL21 (DE3), purified (Ni-NTA, size-exclusion chromatography)
For B9, in data set [6], the binding result is “binds”.
